Each block holds one binder with its values, some of them ahead of it.
What was measured:
Conditions in all cases: both partners purified
3xFLAG-Hsf1 = biological target: T1, 3xFLAG-Hsf1 (S. cerevisiae, UniProt P10961 1-833); assay: co-IP; anti-FLAG IP of recombinant proteins with rHsf1-3xFLAG as bait, Western blot anti-HIS for rSsa2; IP buffer alone or with 1 mM ATP
T1 construct: The text prints 3xFLAG-Hsf1 and the legend prints rHsf1-3xFLAG, so the tag end is left open; also called rHsf1-3xFLAG; rHsf1; source: construct not described in the methods
T1 sequence (looked up): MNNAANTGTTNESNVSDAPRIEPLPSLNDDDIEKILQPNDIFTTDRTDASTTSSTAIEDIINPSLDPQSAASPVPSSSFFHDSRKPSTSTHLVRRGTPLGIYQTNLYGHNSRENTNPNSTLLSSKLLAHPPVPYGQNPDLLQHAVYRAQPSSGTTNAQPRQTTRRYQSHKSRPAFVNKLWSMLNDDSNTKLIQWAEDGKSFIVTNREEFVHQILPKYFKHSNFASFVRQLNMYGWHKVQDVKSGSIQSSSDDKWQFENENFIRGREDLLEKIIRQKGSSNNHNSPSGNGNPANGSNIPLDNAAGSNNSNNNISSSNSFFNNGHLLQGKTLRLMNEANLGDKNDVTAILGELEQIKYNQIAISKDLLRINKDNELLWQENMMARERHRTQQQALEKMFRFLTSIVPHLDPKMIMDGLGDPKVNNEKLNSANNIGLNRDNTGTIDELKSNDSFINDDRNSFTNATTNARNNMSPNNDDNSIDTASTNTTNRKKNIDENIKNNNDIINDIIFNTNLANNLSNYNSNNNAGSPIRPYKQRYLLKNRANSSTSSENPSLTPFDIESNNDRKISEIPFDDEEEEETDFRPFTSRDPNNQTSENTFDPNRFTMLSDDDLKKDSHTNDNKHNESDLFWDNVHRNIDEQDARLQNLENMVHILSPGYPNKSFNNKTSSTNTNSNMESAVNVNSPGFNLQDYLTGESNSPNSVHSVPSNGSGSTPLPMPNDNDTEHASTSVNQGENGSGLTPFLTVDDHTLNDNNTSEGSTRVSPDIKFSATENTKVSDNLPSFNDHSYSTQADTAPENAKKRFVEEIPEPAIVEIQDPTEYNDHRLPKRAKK

Aβ42 peptide = biological target: T2, Aβ42 peptide (UniProt P05067 672-713); assay: co-IP; anti-FLAG IP of recombinant proteins with rHsf1-3xFLAG as bait, in the presence of five-fold molar excess (25 µM) of Aβ42 peptide as competitor
T2 construct: also called hydrophobic peptide

[1] = biological target: T3, Hsf1-6xHIS phosphorylated in vitro by casein kinase II (S. cerevisiae, UniProt P10961 1-833, phosphorylated by casein kinase II (mobility shift); sites not stated); assay: co-IP; anti-FLAG IP of recombinant proteins with 3xFLAG-rSsa2 as bait; rHsf1 pre-incubated with ATP alone, ATP and active CKII, or ATP and boiled CKII; Western blot anti-HIS for rHsf1
T3 construct: Full-length wild type HSF1 cloned into pET32b with a C-terminal 6x-HIS tag; also called rHsf1 pre-incubated with ATP and active CKII; phosphorylated Hsf1; source: E. coli BL21(DE3), purified (Ni-NTA agarose), then phosphorylated in vitro with casein kinase II (NEB); not shown: 6xHIS, C-terminal, kept
T3 sequence (looked up): T1 sequence (looked up)

Hsf1-6xHIS = biological target: T4, Hsf1-6xHIS (S. cerevisiae, UniProt P10961 1-833); assay: as above
T4 construct: Full-length wild type HSF1 cloned into pET32b with a C-terminal 6x-HIS tag; pET32b normally adds N-terminal thioredoxin, His and S tags; Plasmids are in Supplementary file 2; also called rHsf1; recombinant Hsf1; source: E. coli BL21(DE3), purified (Ni-NTA agarose, imidazole elution); not shown: 6xHIS, C-terminal, kept
T4 sequence (looked up): T1 sequence (looked up)

T2 sequence (P05067 672-713): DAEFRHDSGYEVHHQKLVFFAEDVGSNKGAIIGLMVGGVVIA

binding result (3xFLAG-Hsf1): binds
binding result (Aβ42 peptide): binds
B1: recombinant Ssa2 (HIS-tagged, tags reversed) (natural protein)
chain: not shown
notes: also called rSsa2; source: construct not described in the methods

binding result [1]: binds
binding result (Hsf1-6xHIS): binds
B2: 6xHIS-3xFLAG-Ssa2 (natural protein)
chain: not shown
notes: Full length SSA2 cloned into pET32b with an N-terminal 6xHIS-3xFLAG tag; pET32b normally adds N-terminal thioredoxin, His and S tags; Plasmids are in Supplementary file 2; also called FLAG-rSsa2; 3xFLAG-rSsa2; source: E. coli BL21(DE3), purified (Ni-NTA agarose, imidazole elution); not shown: 6xHIS, N-terminal, kept; 3xFLAG, N-terminal, kept
